Results reported in US20240270846A1 (published 2024).
Where a chain is given by its changes, count along the chain named. Names and notes keep the numbering of the source.

B1: CE115HA000 H35A one-arm antibody (antibody, human IgG1, kappa, L234A L235A, N297A, name in Kabat numbering)
heavy: QVQLVESGGGVVQPGRSLRLSCAASGFTFSNAWMAWVRQAPGKGLEWVAQIKAKSNNYATYYAESVKGRFTISRDDSKNSLYLQMNSLKTEDTAVYYCRYVHYGAYYGVDAWGQGTTVTVSSASTKGPSVFPLAPSSKSTSGGTAALGCLVKDYFPEPVTVSWNSGALTSGVHTFPAVLQSSGLYSLSSVVTVPSSSLGTQTYICNVNHKPSNTKVDKKVEPKSCDKTHTCPPCPAPEAAGGPSVFLFPPKPKDTLMISRTPEVTCVVVDVSHEDPEVKFNWYVDGVEVHNAKTKPREEQYASTYRVVSVLTVLHQDWLNGKEYKCKVSNKALPAPIEKTISKAKGQPREPQVYTLPPSRCELTKNQVSLSCAVKGFYPSDIAVEWESNGQPENNYKTTPPVLDSDGSFFLVSKLTVDKSRWQQGNVFSCSVMHEALHNHYTQKSLSLSPDYKDDDDK
chain: EPKSSDKTHTCPPCPAPELLGGPSVFLFPPKPKDTLMISRTPEVTCVVVDVSHEDPEVKFNWYVDGVEVHNAKTKPREEQYNSTYRVVSVLTVLHQDWLNGKEYKCKVSNKALPAPIEKTISKAKGQPREPQVCTLPPSRDELTKNQVSLWCLVKGFYPSDIAVEWESNGQPENNYKTTPPVLDSDGSFFLYSKLTVDKSRWQQGNVFSCSVMHEALHNRYTQKSLSLSP
light: DIVMTQSPLSLPVTPGEPASISCRSSQSLVHSNRNTYLHWYQQKPGQAPRLLIYKVSNRFSGVPDRFSGSGSGTDFTLKISRVEAEDVGVYYCGQGTQVPYTFGQGTKLEIKRTVAAPSVFIFPPSDEQLKSGTASVVCLLNNFYPREAKVQWKVDNALQSGNSQESVTEQDSKDSTYSLSSTLTLSKADYEKHKVYACEVTHQGLSSPVTKSFNRGEC
notes: one-arm antibody
B2: CE115HA000 A32Y one-arm antibody (antibody, human IgG1, kappa, L234A L235A, N297A, name in Kabat numbering)
heavy: B1 heavy with A32Y, A35H
chain: B1 chain
light: B1 light
notes: one-arm antibody
B3: CE115HA000 A52aD one-arm antibody (antibody, human IgG1, kappa, L234A L235A, N297A, name in Kabat numbering)
heavy: B1 heavy with A35H, A53D
chain: B1 chain
light: B1 light
notes: one-arm antibody
B4: CE115HA000 A52aE one-arm antibody (antibody, human IgG1, kappa, L234A L235A, N297A, name in Kabat numbering)
heavy: B1 heavy with A35H, A53E
chain: B1 chain
light: B1 light
notes: one-arm antibody
B5: CE115HA000 A52aG one-arm antibody (antibody, human IgG1, kappa, L234A L235A, N297A, name in Kabat numbering)
heavy: B1 heavy with A35H, A53G
chain: B1 chain
light: B1 light
notes: one-arm antibody
B6: CE115HA000 A52aP one-arm antibody (antibody, human IgG1, kappa, L234A L235A, N297A, name in Kabat numbering)
heavy: B1 heavy with A35H, A53P
chain: B1 chain
light: B1 light
notes: one-arm antibody
B7: CE115HA000 A52aS one-arm antibody (antibody, human IgG1, kappa, L234A L235A, N297A, name in Kabat numbering)
heavy: B1 heavy with A35H, A53S
chain: B1 chain
light: B1 light
notes: one-arm antibody
B8: CE115HA000 A52aV one-arm antibody (antibody, human IgG1, kappa, L234A L235A, N297A, name in Kabat numbering)
heavy: B1 heavy with A35H, A53V
chain: B1 chain
light: B1 light
notes: one-arm antibody
B9: CE115HA000 A52aY one-arm antibody (antibody, human IgG1, kappa, L234A L235A, N297A, name in Kabat numbering)
heavy: B1 heavy with A35H, A53Y
chain: B1 chain
light: B1 light
notes: one-arm antibody
B10: GLS3000 S27eG (Kabat) L chain altered form, one-arm antibody with CE115HA000 (antibody, human IgG1, kappa, L234A L235A, N297A, name in Kabat numbering)
heavy: B1 heavy with A35H
chain: B1 chain
light: B1 light with S32G
notes: one-arm antibody
B11: GLS3000 S27eH (Kabat) L chain altered form, one-arm antibody with CE115HA000 (antibody, human IgG1, kappa, L234A L235A, N297A, name in Kabat numbering)
heavy: B1 heavy with A35H
chain: B1 chain
light: B1 light with S32H
notes: one-arm antibody
B12: GLS3000 S27eI (Kabat) L chain altered form, one-arm antibody with CE115HA000 (antibody, human IgG1, kappa, L234A L235A, N297A, name in Kabat numbering)
heavy: B1 heavy with A35H
chain: B1 chain
light: B1 light with S32I
notes: one-arm antibody
B13: GLS3000 S27eK (Kabat) L chain altered form, one-arm antibody with CE115HA000 (antibody, human IgG1, kappa, L234A L235A, N297A, name in Kabat numbering)
heavy: B1 heavy with A35H
chain: B1 chain
light: B1 light with S32K
notes: one-arm antibody
B14: GLS3000 S27eL (Kabat) L chain altered form, one-arm antibody with CE115HA000 (antibody, human IgG1, kappa, L234A L235A, N297A, name in Kabat numbering)
heavy: B1 heavy with A35H
chain: B1 chain
light: B1 light with S32L
notes: one-arm antibody
B15: GLS3000 S27eM (Kabat) L chain altered form, one-arm antibody with CE115HA000 (antibody, human IgG1, kappa, L234A L235A, N297A, name in Kabat numbering)
heavy: B1 heavy with A35H
chain: B1 chain
light: B1 light with S32M
notes: one-arm antibody
B16: GLS3000 S27eN (Kabat) L chain altered form, one-arm antibody with CE115HA000 (antibody, human IgG1, kappa, L234A L235A, N297A, name in Kabat numbering)
heavy: B1 heavy with A35H
chain: B1 chain
light: B1 light with S32N
notes: one-arm antibody
B17: GLS3000 S27eP (Kabat) L chain altered form, one-arm antibody with CE115HA000 (antibody, human IgG1, kappa, L234A L235A, N297A, name in Kabat numbering)
heavy: B1 heavy with A35H
chain: B1 chain
light: B1 light with S32P
notes: one-arm antibody
B18: GLS3000 S27eQ (Kabat) L chain altered form, one-arm antibody with CE115HA000 (antibody, human IgG1, kappa, L234A L235A, N297A, name in Kabat numbering)
heavy: B1 heavy with A35H
chain: B1 chain
light: B1 light with S32Q
notes: one-arm antibody
B19: GLS3000 S27eR (Kabat) L chain altered form, one-arm antibody with CE115HA000 (antibody, human IgG1, kappa, L234A L235A, N297A, name in Kabat numbering)
heavy: B1 heavy with A35H
chain: B1 chain
light: B1 light with S32R
notes: one-arm antibody
B20: GLS3000 S27eT (Kabat) L chain altered form, one-arm antibody with CE115HA000 (antibody, human IgG1, kappa, L234A L235A, N297A, name in Kabat numbering)
heavy: B1 heavy with A35H
chain: B1 chain
light: B1 light with S32T
notes: one-arm antibody
B21: GLS3000 S27eV (Kabat) L chain altered form, one-arm antibody with CE115HA000 (antibody, human IgG1, kappa, L234A L235A, N297A, name in Kabat numbering)
heavy: B1 heavy with A35H
chain: B1 chain
light: B1 light with S32V
notes: one-arm antibody
B22: GLS3000 S27eW (Kabat) L chain altered form, one-arm antibody with CE115HA000 (antibody, human IgG1, kappa, L234A L235A, N297A, name in Kabat numbering)
heavy: B1 heavy with A35H
chain: B1 chain
light: B1 light with S32W
notes: one-arm antibody
B23: GLS3000 S27eY (Kabat) L chain altered form, one-arm antibody with CE115HA000 (antibody, human IgG1, kappa, L234A L235A, N297A, name in Kabat numbering)
heavy: B1 heavy with A35H
chain: B1 chain
light: B1 light with S32Y
notes: one-arm antibody
B24: GLS3000 S52A (Kabat) L chain altered form, one-arm antibody with CE115HA000 (antibody, human IgG1, kappa, L234A L235A, N297A, name in Kabat numbering)
heavy: B1 heavy with A35H
chain: B1 chain
light: B1 light with S57A
notes: one-arm antibody
B25: GLS3000 S56A (Kabat) L chain altered form, one-arm antibody with CE115HA000 (antibody, human IgG1, kappa, L234A L235A, N297A, name in Kabat numbering)
heavy: B1 heavy with A35H
chain: B1 chain
light: B1 light with S61A
notes: one-arm antibody
B26: GLS3000 V27cD (Kabat) L chain altered form, one-arm antibody with CE115HA000 (antibody, human IgG1, kappa, L234A L235A, N297A, name in Kabat numbering)
heavy: B1 heavy with A35H
chain: B1 chain
light: B1 light with V30D
notes: one-arm antibody
B27: GLS3000 V27cE (Kabat) L chain altered form, one-arm antibody with CE115HA000 (antibody, human IgG1, kappa, L234A L235A, N297A, name in Kabat numbering)
heavy: B1 heavy with A35H
chain: B1 chain
light: B1 light with V30E
notes: one-arm antibody
B28: GLS3000 V27cI (Kabat) L chain altered form, one-arm antibody with CE115HA000 (antibody, human IgG1, kappa, L234A L235A, N297A, name in Kabat numbering)
heavy: B1 heavy with A35H
chain: B1 chain
light: B1 light with V30I
notes: one-arm antibody
B29: GLS3000 V27cL (Kabat) L chain altered form, one-arm antibody with CE115HA000 (antibody, human IgG1, kappa, L234A L235A, N297A, name in Kabat numbering)
heavy: B1 heavy with A35H
chain: B1 chain
light: B1 light with V30L
notes: one-arm antibody
B30: GLS3000 V27cP (Kabat) L chain altered form, one-arm antibody with CE115HA000 (antibody, human IgG1, kappa, L234A L235A, N297A, name in Kabat numbering)
heavy: B1 heavy with A35H
chain: B1 chain
light: B1 light with V30P
notes: one-arm antibody
B31: GLS3000 V27cS (Kabat) L chain altered form, one-arm antibody with CE115HA000 (antibody, human IgG1, kappa, L234A L235A, N297A, name in Kabat numbering)
heavy: B1 heavy with A35H
chain: B1 chain
light: B1 light with V30S
notes: one-arm antibody
B32: GLS3000 V27cY (Kabat) L chain altered form, one-arm antibody with CE115HA000 (antibody, human IgG1, kappa, L234A L235A, N297A, name in Kabat numbering)
heavy: B1 heavy with A35H
chain: B1 chain
light: B1 light with V30Y
notes: one-arm antibody
B33: GLS3000 Y32A (Kabat) L chain altered form, one-arm antibody with CE115HA000 (antibody, human IgG1, kappa, L234A L235A, N297A, name in Kabat numbering)
heavy: B1 heavy with A35H
chain: B1 chain
light: B1 light with Y37A
notes: one-arm antibody

molecular target: T1, CD3 epsilon homodimer protein (UniProt P07766 23-126); test: SPR Biacore T200, antibody over immobilised CD3e homodimer;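 also: CD3 epsilon homodimer amine-coupled on a CM4 chip, run at 25 °C in HBS-EP+, Z = bound amount of each single-residue H chain variant over that of the parent antibody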
T1 construct: also called CD3 (CD3 epsilon)
T1 sequence (P07766 23-126): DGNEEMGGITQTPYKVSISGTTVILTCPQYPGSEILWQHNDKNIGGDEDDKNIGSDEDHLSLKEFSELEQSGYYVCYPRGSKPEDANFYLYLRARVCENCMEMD

Row | Binder | ratio of amounts bound (Z=Y/X vs CE115HA000)
1 | B1 | 0.17
2 | B2 | 0.33
3 | B3 | 1.34
4 | B4 | 0.57
5 | B5 | 0.81
6 | B6 | 0.15
7 | B7 | 1.05
8 | B8 | 0.52
9 | B9 | 0.31

molecular target: T2, CD3 epsilon homodimer protein (UniProt P07766 23-126); test: SPR Biacore T200, CD3 epsilon homodimer immobilized; vs unaltered GLS3000;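 also: antibody variants flowed as analyte over CD3 epsilon homodimer amine-coupled to a CM4 chip, at 25 °C in HBS-EP+ running buffer, fitted with Biacore T200 Evaluation Software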
T2 construct: construct not described; homodimer as printed; also called CD3 (CD3 epsilon)
T2 sequence (P07766 23-126): as above

Row | Binder | KD ratio to GLS3000 (Affinity up)
10 | B10 | 1.03
11 | B11 | 1.09
12 | B12 | 1.05
13 | B13 | 1.32
14 | B14 | 1.06
15 | B15 | 1.11
16 | B16 | 1.01
17 | B17 | 1.06
18 | B18 | 1.08
19 | B19 | 1.35
20 | B20 | 0.98
21 | B21 | 0.95
22 | B22 | 1.32
23 | B23 | 1.1
24 | B24 | 0.9
25 | B25 | 1.18
26 | B26 | 3.21
27 | B27 | 1.1
28 | B28 | 1.03
29 | B29 | 0.81
30 | B30 | 3.71
31 | B31 | 3.04
32 | B32 | 1.25
33 | B33 | 66.8
